Here are results for 6 molecules from patent publication US20130189787A1 (OPX BIOTECHNOLOGIES ,INC., priority 2008, published 2013).

One data set concerns E. coli strain BW25113. As to conditions: 20 g/L 3-HP, putrescine 0.1 g/L.
Data set [1] relates to gram negative and gram positive bacteria. The note with it: wide range of gram negative and gram positive bacteria; concentrations as low as; cited from earlier work.
Another data set has as its system E. coli. The note with it: known to be toxic; cited from earlier work.
A short description of data set [2]: Enzyme activity assays for dehydrogenase enzymes with 3-HP as a substrate (340 nm spectrophotometric). It counts as biochemical, E. coli. As to conditions: 1 mM 3-HP, 1 mM cofactor, 1 hour at room temperature, change in absorption at 340 nm; clarified lysates or purified enzymes. The method, then:
Samples of these enzymes were isolated either as clarified lysates or as purified enzymes as described in the method reported above. As these dehydrogenases use NAD+, NADH, NADP+, NADPH or all of these molecules as cofactors for their reactions depending on reaction direction, all enzymes where tested with their known cofactors. For enzymes where the specific cofactors have not been determined or maybe unclear, all possible cofactors were evaluated.
(§1) A spectrophotometric assay was used to evaluate enzyme activity. […] Replicates of reactions were carried out to compare reactions in the presence or absence or 3-HP, and with and without enzyme. Enzymatic activities were confirmed by comparing the change in the 340 nm absorption values after 1 hour incubations to reactions performed in buffer containing 1 mM cofactor as a baseline. […] Furthermore, activity of the purified aldB enzyme was confirmed with its natural substrate (1 mM […]) as in FIG. 9B.
(§2) Reactions were carried out using one of two reaction buffers. AldA, AldB, LacZ, and Usg reactions were performed in a buffer consisting of 100 mM potassium phosphate buffer pH 7.4 with 50 mM sodium chloride. Likewise, puuC reactions were performed in a buffer consisting of 200 mM sodium bicarbonate pH 9.2 with 10 mM dithiothreitol and 30 micromolar ferrous sulphate. Where stated, all cofactors were used at 1 mM in the final reaction buffer. […] After one hour incubations at room temperature, the samples were diluted 1 to 20 in water and measured with a Beckmann DU530 spectrometer set at 340 nm.

Data set [3] is described as follows: Enzyme activity assay of purified aldB with its natural substrate. It counts as biochemical, E. coli. The note with it: 1 mM acetate, FIG. 9B. The protocol: as §1, §2

Experimental for E. coli strain BW25113: The control E. coli strain BW25113 and 22 of its derivatives, each derivative having a deletion of a respective one of 22 aldehyde dehydrogenases or related genes (predicted aldehyde dehydrogenases via homology, www.ecocyc.org) were cultured as described in methods in the Common Methods Section. […] These strains each contain a kanamycin marker in place of the deleted gene.
In addition, an Eppendorf external column heater is used and the data are collected using an SRI (Torrance, Calif.) analog-to-digital converter linked to a standard desk top computer. Data are analyzed using the SRI Peak Simple software. A Coregel 64H ion exclusion column (Transgenomic, Inc., San Jose, Calif.) is employed. The column resin is a sulfonated polystyrene divinyl benzene with a particle size of 10 μm and column dimensions are 300×7.8 mm The mobile phase consisted of sulfuric acid (Fisher Scientific, Pittsburgh, Pa. USA) diluted with deionized (18 MΩcm) water to a concentration of 0.02 N and vacuum filtered through a 0.2 μm nylon filter. The flow rate of the mobile phase is 0.6 mL/min. The UV detector is operated at a wavelength of 210 nm and the column is heated to 60° C.
The next day, 250 uL of the overnight cultures were inoculated into 25 mL of M9+kanamycin. […] All the intracellular and extracellular metabolites were analyzed by HPLC as described in the Common Methods Section, Subsection III.

On to `NCCCCN` [putrescine], for which the “level of aldehyde in response to 3-HP” value in the data set with E. coli strain BW25113 (20 hours, FIG. 7) is given as “greater level”. The “level of aldehyde in response to 3-HP in a strain lacking the puuC gene” value in the data set with E. coli strain BW25113 (puuC deletion strain, FIG. 8) was “elevated levels”. Consider `O=CCCO` [3-HPA, 3-hydroxypropionaldehyde], for which the “concentration toxic to bacteria” value in data set [1] is recorded as no less than 15 mM. Besides, in the data set with E. coli, the “toxicity to E. coli” value was “toxic”.

B1: usg: E. coli aldehyde dehydrogenase not listed in Table 1 (SEQ ID NO: 121) (protein, listed as Escherichia coli)
chain: MSEGWNIAVLGATGAVGEALLETLAERQFPVGEIYALARNESAGEQLRFGGKTITVQDAAEFDWTQAQLAFFVAGKEATAAWVEEATNSGCLVIDSSGLFALEPDVPLVVPEVNPFVLTDYRNRNVIAVPDSLTSQLLAALKPLIDQGGLSRISVTSLISASAQGKKAVDALAGQSAKLLNGIPIDEEDFFGRQLAFNMLPLLPDSEGSVREERRIVDEVRKILQDEGLMISASVVQAPVFYGHAQMVNFEALRPLAAEEARDAFVQGEDIVLSEENEFPTQVGDASGTPHLSVGCVRNDYGMPEQVQFWSVADNVRFGGALMAVKIAEKLVQEYLY
Consider B1, for which the “enzymatic activity using 3-HP as a substrate” value (“enzymatic activity using 3-HP” below) in data set [2] is “showed activity”.

B2: aldA: E. coli aldehyde dehydrogenase A, his-tagged, over-expressed (SEQ ID NO 023) (protein, listed as Escherichia coli)
chain: MSVPVQHPMYIDGQFVTWRGDAWIDVVNPATEAVISRIPDGQAEDARKAIDAAERAQPEWEALPAIERASWLRKISAGIRERASEISALIVEEGGKIQQLAEVEVAFTADYIDYMAEWARRYEGEIIQSDRPGENILLFKRALGVTTGILPWNFPFFLIARKMAPALLTGNTIVIKPSEFTPNNAIAFAKIVDEIGLPRGVFNLVLGRGETVGQELAGNPKVAMVSMTGSVSAGEKIMATAAKNITKVCLELGGKAPAIVMDDADLELAVKAIVDSRVINSGQVCNCAERVYVQKGIYDQFVNRLGEAMQAVQFGNPAERNDIAMGPLINAAALERVEQKVARAVEEGARVAFGGKAVEGKGYYYPPTLLLDVRQEMSIMHEETFGPVLPVVAFDTLEDAISMANDSDYGLTSSIYTQNLNVAMKAIKGLKFGETYINRENFEAMQGFHAGWRKSGIGGADGKHGLHEYLQTQVVYLQS
modifications: His tag
Consider B2, for which the “enzymatic activity using 3-HP” value in data set [2] is given as “showed activity”.

B3: puuC: E. coli γ-glutamyl-γ-aminobutyraldehyde dehydrogenase, over-expressed (SEQ ID NO 038) (protein, listed as Escherichia coli)
chain: MNFHHLAYWQDKALSLAIENRLFINGEYTAAAENETFETVDPVTQAPLAKIARGKSVDIDRAMSAARGVFERGDWSLSSPAKRKAVLNKLADLMEAHAEELALLETLDTGKPIRHSLRDDIPGAARAIRWYAEAIDKVYGEVATTSSHELAMIVREPVGVIAAIVPWNFPLLLTCWKLGPALAAGNSVILKPSEKSPLSAIRLAGLAKEAGLPDGVLNVVTGFGHEAGQALSRHNDIDAIAFTGSTRTGKQLLKDAGDSNMKRVWLEAGGKSANIVFADCPDLQQAASATAAGIFYNQGQVCIAGTRLLLEESIADEFLALLKQQAQNWQPGHPLDPATTMGTLIDCAHADSVHSFIREGESKGQLLLDGRNAGLAAAIGPTIFVDVDPNASLSREEIFGPVLVVTRFTSEEQALQLANDSQYGLGAAVWTRDLSRAHRMSRRLKAGSVFVNNYNDGDMTVPFGGYKQSGNGRDKSLHALEKFTELKTIWISLEA
As to B3, in data set [2], the “enzymatic activity using 3-HP” value is on record as “showed activity”.

B4: aldB: E. coli acetaldehyde dehydrogenase, his-tagged, over-expressed (SEQ ID NO 024) (protein, listed as Escherichia coli)
chain: MTNNPPSAQIKPGEYGFPLKLKARYDNFIGGEWVAPADGEYYQNLTPVTGQLLCEVASSGKRDIDLALDAAHKVKDKWAHTSVQDRAAILFKIADRMEQNLELLATAETWDNGKPIRETSAADVPLAIDHFRYFASCIRAQEGGISEVDSETVAYHFHEPLGVVGQIIPWNFPLLMASWKMAPALAAGNCVVLKPARLTPLSVLLLMEIVGDLLPPGVVNVVNGAGGVIGEYLATSKRIAKVAFTGSTEVGQQIMQYATQNIIPVTLELGGKSPNIFFADVMDEEDAFFDKALEGFALFAFNQGEVCTCPSRALVQESIYERFMERAIRRVESIRSGNPLDSVTQMGAQVSHGQLETILNYIDIGKKEGADVLTGGRRKLLEGELKDGYYLEPTILFGQNNMRVFQEEIFGPVLAVTTFKTMEEALELANDTQYGLGAGVWSRNGNLAYKMGRGIQAGRVWTNCYHAYPAHAAFGGYKQSGIGRETHKMMLEHYQQTKCLLVSYSDKPLGLF
modifications: His tag
Turning to B4, the “enzymatic activity with natural substrate” value in data set [3] is on record as “confirmed”. Moreover, in data set [2], the “enzymatic activity using 3-HP” value is reported as “showed activity”.
